Test [1] deals with SF3b1 ULM5 (Homo sapiens) (UniProt O75533). The settings on record: cited from earlier work.
The target of test [2] is T1, Tat-SF1 (residues 1-360) (human, UniProt O43719 1-360).
T1 chain: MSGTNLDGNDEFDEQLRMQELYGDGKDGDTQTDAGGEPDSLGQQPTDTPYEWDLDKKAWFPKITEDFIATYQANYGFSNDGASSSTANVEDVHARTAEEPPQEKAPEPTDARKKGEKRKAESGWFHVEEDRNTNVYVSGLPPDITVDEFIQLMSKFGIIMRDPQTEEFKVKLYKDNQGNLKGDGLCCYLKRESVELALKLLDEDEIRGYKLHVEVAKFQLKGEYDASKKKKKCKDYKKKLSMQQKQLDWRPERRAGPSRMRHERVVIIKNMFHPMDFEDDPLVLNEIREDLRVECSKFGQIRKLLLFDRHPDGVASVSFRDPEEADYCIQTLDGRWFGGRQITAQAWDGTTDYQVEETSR
The test is described as follows: ITC. Background: ITC needs no label: the signal is the heat of the interaction.

For test [3], the target named is T2, GB1-Cus2, full length, with N-terminal His-tag and GB1 solubility tag (S. cerevisiae, UniProt P53830 1-285).
T2 construct: also called full-length Cus2 protein; not shown: GB1, N-terminal, kept
T2 sequence (looked up): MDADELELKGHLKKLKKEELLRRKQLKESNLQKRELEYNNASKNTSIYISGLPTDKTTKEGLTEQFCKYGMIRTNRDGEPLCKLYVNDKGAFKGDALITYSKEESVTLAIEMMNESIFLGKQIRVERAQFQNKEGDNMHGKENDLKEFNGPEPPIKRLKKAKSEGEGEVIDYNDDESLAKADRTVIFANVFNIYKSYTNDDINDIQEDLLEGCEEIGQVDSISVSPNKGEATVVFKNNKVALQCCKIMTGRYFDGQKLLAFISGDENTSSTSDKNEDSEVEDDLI
The test is described as follows: pull-down; GST-fusion protein or GST (100 µg) immobilised on glutathione agarose, GB1-Cus2 (500 µg in 500 µL) added for 30 min; 100 mM NaCl, 25 mM HEPES pH 7.4, 10% glycerol, 0.1% NP-40; six washes; SDS-PAGE, Coomassie. The settings on record: both partners purified.

Test [4] has as its target T3, Tat-SF1 (residues 1-360) (human, UniProt O43719 1-360).
T3 construct: lacks the divergent acidic C-terminal expansion; Expressed as a GST fusion from a pGEX-6p variant with a TEV cleavage site for the GST tag; also called recombinant Tat-SF1
T3 sequence (looked up): T1 chain
The test is described as follows: ITC; apparent; Cus2 or Tat-SF1 proteins titrated with Hsh155 ULM peptide (95-109); 50 mM NaCl, 25 mM HEPES pH 7.4, 0.2 mM TCEP; VP-ITC; three replicates. The settings on record: both partners purified.

The target of test [5] is T4, Cus2 D204K with C-terminal His-tag (S. cerevisiae, UniProt P53830 1-285, D204K).
T4 construct: also called D204K mutant Cus2; recombinant Cus2^D204K; source: expressed and purified the same as wild-type Cus2, at the University of California Berkeley QB3 MacroLab
T4 sequence (looked up): T2 sequence (looked up) with D204K
The test is described as above. The settings on record: both partners purified.

The target of test [6] is T5, Cus2, full length, with C-terminal His-tag (S. cerevisiae, UniProt P53830 1-285).
T5 construct: also called full-length Cus2; recombinant wild-type Cus2
T5 sequence (looked up): T2 sequence (looked up)
The description is as above. The settings on record: both partners purified.

Test [7] deals with T6, Cus2 UHM (residues 177-269) (S. cerevisiae, UniProt P53830 177-269).
T6 construct: Expressed as a GST fusion from a pGEX-6p variant with a TEV cleavage site for the GST tag; also called isolated Cus2 UHM
T6 sequence (looked up): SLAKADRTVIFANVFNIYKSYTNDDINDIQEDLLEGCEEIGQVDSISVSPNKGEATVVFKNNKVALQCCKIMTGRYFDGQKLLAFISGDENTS
The description is as above. The settings on record: both partners purified.

In test [8] the target is T7, Cus2, full length, fused to the GAL4 DNA-binding domain (S. cerevisiae, UniProt P53830 1-285).
T7 sequence (looked up): T2 sequence (looked up)
Put plainly: cell-based or functional assay.

We go through six molecules from PMC6633205, “Cus2 enforces the first ATP-dependent step of splicing by binding to yeast SF3b1 through a UHM–ULM interaction” (RNA, 2019).

Substitutions are numbered along the chain they refer to. Names and notes keep the numbering of the source.

Turning to Tat-SF1 (from UniProt O43719), the Kd in test [1] is 800 nM.

B1: ULM5 (peptide)
chain: KRKSRWDETPASQMGGSTP
In the case of B1, the Kd in test [2] worked out at 800 nM.

B2: GST-Hsh155 (86-129) (domain or fragment, S. cerevisiae, UniProt P49955 86-129, looked up)
chain: ENTQDAVVPRKRKSRWDVKGYEPPDESSTAVKENSDSALVNVEG
notes: also called ^GSTHsh155^ULM; Hsh155^ULM
As to B2, the binding result in test [3] is on record as “binds”.

B3: SF3b1 ULM (protein)
chain: SQPPSKRKRRWDQTADQTPGATPKKLSSWDQAETPGHTPSLRWDETPGRAKGSETPGATPGSKIWDPTPSHTPAGAATPGRGDTPGHATPGHGGATSSARKNRWDETPKTERDTPGHGSGWAETPRTDRGGDSIGETPTPGASKRKSRWDETPAS
As to B3, the Kd in test [2] worked out at 1800 nM.

B4: Hsh155 ULM peptide (residues 95-109) (peptide, UniProt P49955 95-109, looked up)
peptide: RKRKSRWDVKGYEPP
notes: source: synthetic peptide, bought: Biomatik Corp. (98% purity)
B4: the Kd in test [4] stood at 229 nM; in test [5], 1020 nM; in test [6] it was 32 nM; in test [7], 18 nM. Besides, the “stoichiometry N” value in test [4], in test [5], in test [6] and in test [7] was roughly 1 in each case.

B5: Hsh155 R100D, W101A fused to the GAL4 activation domain (natural protein, S. cerevisiae, UniProt P49955 1-971, looked up)
chain: MSHPIQFVNANNSDKSHQLGGQYSIPQDLRENLQKEAARIGENEKDVLQEKMETRTVQNREDSYHKRRFDMKFEPDSDTQTVTSSENTQDAVVPRKRKSDADVKGYEPPDESSTAVKENSDSALVNVEGIHDLMFFKPSDHKYFADVISKKPIDELNKDEKKERTLSMLLLKIKNGNTASRRTSMRILTDKAVTFGPEMIFNRLLPILLDRSLEDQERHLMIKTIDRVLYQLGDLTKPYVHKILVVAAPLLIDEDPMVRSTGQEIITNLSTVAGLKTILTVMRPDIENEDEYVRNVTSRAAAVVAKALGVNQLLPFINAACHSRKSWKARHTGIKIVQQIGILLGIGVLNHLTGLMSCIKDCLMDDHVPVRIVTAHTLSTLAENSYPYGIEVFNVVLEPLWKGIRSHRGKVLSSFLKAVGSMIPLMDPEYAGYYTTEAMRIIRREFDSPDDEMKKTILLVLQKCSAVESITPKFLREEIAPEFFQKFWVRRVALDRPLNKVVTYTTVTLAKKLGCSYTIDKLLTPLRDEAEPFRTMAVHAVTRTVNLLGTADLDERLETRLIDALLIAFQEQTNSDSIIFKGFGAVTVSLDIRMKPFLAPIVSTILNHLKHKTPLVRQHAADLCAILIPVIKNCHEFEMLNKLNIILYESLGEVYPEVLGSIINAMYCITSVMDLDKLQPPINQILPTLTPILRNKHRKVEVNTIKFVGLIGKLAPTYAPPKEWMRICFELLELLKSTNKEIRRSANATFGFIAEAIGPHDVLVALLNNLKVQERQLRVCTAVAIGIVAKVCGPYNVLPVIMNEYTTPETNVQNGVLKAMSFMFEYIGNMSKDYIYFITPLLEDALTDRDLVHRQTASNVITHLALNCSGTGHEDAFIHLMNLLIPNIFETSPHAIMRILEGLEALSQALGPGLFMNYIWAGLFHPAKNVRKAFWRVYNNMYVMYQDAMVPFYPVTPDNNEEYIEELDLVL
B5: the “pre-mRNA coimmunoprecipitated with Lea1-TAP in the absence of ATP (ATP-independent pre-spliceosome formation) in Hsh155^RW-DA extract relative to wild-type extract” value in test [8] was roughly 11 fold.

By stoichiometry N is commonly meant the number of molecules, sites or subunits per partner or assembly.
